Substitutions are numbered along the chain they refer to. Numbers in names are those of the source.

For one data set, the target named is T1, membrane-bound β3GalT5–2 (Homo sapiens, UniProt A0A0A0MS93).
T1 construct: gene B3GALT5; full length, 314 residues, C-terminal Flag tag, expressed in HEK293 cells, LMNG-extracted, anti-Flag purified
T1 sequence (A0A0A0MS93 1-314): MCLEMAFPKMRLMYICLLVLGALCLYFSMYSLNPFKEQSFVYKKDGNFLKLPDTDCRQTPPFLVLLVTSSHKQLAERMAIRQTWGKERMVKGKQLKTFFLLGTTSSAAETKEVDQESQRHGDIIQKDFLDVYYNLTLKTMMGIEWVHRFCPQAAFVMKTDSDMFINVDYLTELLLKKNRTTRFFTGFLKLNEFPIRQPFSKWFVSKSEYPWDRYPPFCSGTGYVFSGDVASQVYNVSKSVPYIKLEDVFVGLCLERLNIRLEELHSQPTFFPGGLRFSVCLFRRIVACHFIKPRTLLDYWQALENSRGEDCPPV
The data set can be described thus: galactosyltransferase activity. The format is biochemical. The settings on record: UDP-Gal, with or without 1% LMNG.

Data set [1] has as its target T2, soluble β3GalT5-1 (insect) (Homo sapiens, UniProt Q9Y2C3).
T2 construct: gene B3GALT5; crystal: Phe31-Pro308 stated, Asp41-Pro308 visible
T2 sequence (Q9Y2C3 29-310): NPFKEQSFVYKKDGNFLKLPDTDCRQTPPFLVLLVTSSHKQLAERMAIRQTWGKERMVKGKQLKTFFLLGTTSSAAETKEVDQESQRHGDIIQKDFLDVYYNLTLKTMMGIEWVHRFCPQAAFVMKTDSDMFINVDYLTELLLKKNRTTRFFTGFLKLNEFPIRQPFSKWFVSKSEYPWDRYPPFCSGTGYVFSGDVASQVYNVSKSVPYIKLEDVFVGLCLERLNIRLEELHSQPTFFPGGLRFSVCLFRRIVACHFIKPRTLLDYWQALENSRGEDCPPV
The data set can be described thus: X-ray crystal structure. The format is binding. The settings on record: acceptor site, Mn2+.

For the next data set, the target named is T3, membrane-bound β3GalT5–1 (Homo sapiens, UniProt Q9Y2C3).
T3 construct: gene B3GALT5; full length M1-V310, C-terminal Flag tag, expressed in HEK293 cells, LMNG-extracted, anti-Flag purified
T3 sequence (Q9Y2C3 1-310): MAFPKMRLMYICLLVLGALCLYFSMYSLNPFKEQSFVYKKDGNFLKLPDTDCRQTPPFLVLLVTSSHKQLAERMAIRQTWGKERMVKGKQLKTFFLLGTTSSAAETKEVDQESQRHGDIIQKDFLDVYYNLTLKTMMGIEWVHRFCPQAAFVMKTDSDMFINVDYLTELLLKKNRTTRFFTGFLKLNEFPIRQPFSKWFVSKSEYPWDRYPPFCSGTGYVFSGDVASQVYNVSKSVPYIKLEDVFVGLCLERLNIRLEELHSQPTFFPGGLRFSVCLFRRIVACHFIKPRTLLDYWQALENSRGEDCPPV
The data set can be described thus: galactosyltransferase activity. The settings on record: UDP-Gal, with or without 1% LMNG. It is filed as biochemical.

A short description of data set [2]: galactosyltransferase activity assay (Figure S6E). To be noted: control: untreated Sf9-expressed enzyme (paucimannose glycoforms).
The nature of data set [3]: Michaelis–Menten kinetics by UDP release. The settings on record: glycan changed form; control: Sf9 insect cell-expressed enzyme (paucimannose).
Substrate in data set [4]: C=CCO[C@@H]1O[C@H](CO)[C@@H](O[C@@H]2O[C@H](CO)[C@H](O[C@H]3O[C@H](CO)[C@H](O)[C@H](O[C@@H]4O[C@H](CO)[C@H](O)[C@H](O)[C@H]4NC(C)=O)[C@H]3O)[C@H](O)[C@H]2O)[C@H](O)[C@H]1O
The data set can be described thus: UDP release, Michaelis-Menten fit. It is filed as biochemical, Homo sapiens. The settings on record: 0.1 mM UDP-Gal, HEPES, 0.1 mM MnCl2, 0-4 mM substrate; pH 7.0. From the text:
UDP release, Michaelis-Menten fit on soluble β3GalT5-1 (insect)

Substrate in data set [5]: O=c1ccn([C@@H]2O[C@H](COP(=O)(O)OP(=O)(O)O[C@H]3O[C@H](CO)[C@H](O)[C@H](O)[C@H]3O)[C@@H](O)[C@H]2O)c(=O)[nH]1
The data set can be described thus: UDP release, Michaelis-Menten fit. The format is biochemical, Homo sapiens. The settings on record: 2 mM Gb4 glycan fixed, 20 mM HEPES pH 7.4, 0.1 mM MnCl2. The source says:
(§1) UDP release, Michaelis-Menten fit on soluble β3GalT5-1 (HEK293)

Substrate in data set [6]: C=CCO[C@@H]1O[C@H](CO)[C@@H](O[C@@H]2O[C@H](CO)[C@H](O[C@H]3O[C@H](CO)[C@H](O)[C@H](O[C@@H]4O[C@H](CO)[C@H](O)[C@H](O)[C@H]4NC(C)=O)[C@H]3O)[C@H](O)[C@H]2O)[C@H](O)[C@H]1O
The data set can be described thus: UDP release, Michaelis-Menten fit. It is filed as biochemical, Homo sapiens. The settings on record: 10 mM UDP-sugar (UDP-Gal) fixed, 20 mM HEPES pH 7.4, 0.1 mM MnCl2.
Source text: as §1

For `CC(=O)N[C@H]1[C@H](O[C@H]2[C@@H](O)[C@@H](CO)O[C@H](O[C@@H]3[C@H](O)[C@@H](O)[C@H](O[C@H]4[C@H](O)[C@@H](O)C(O)O[C@@H]4CO)O[C@@H]3CO)[C@@H]2O)O[C@H](CO)[C@H](O)[C@@H]1O` (stereo partly shown) [Gb4 glycan], the galactosyltransferase activity result on membrane-bound β3GalT5–2 and on membrane-bound β3GalT5–1 was “regardless of whether Gb4 or Gb4 glycan was used as a substrate” in each case. Also, the X-ray crystal structure result in data set [1] was “the acceptor substrate Gb4 glycan is represented by pink sticks”.

B1: β3GalT5–1 (soluble domain): PNGase F (protein)
parent chain: T3 sequence (Q9Y2C3 1-310)
For the molecule B1, the “enzymatic_activity, fold_change” value in data set [2] (glycan lost) was “decreases”.

B2: β3GalT5–1 (soluble domain): expression in HEK293 (complex-type glycoforms) (protein)
parent chain: T3 sequence (Q9Y2C3 1-310)
B2: in data set [3], the “enzymatic_activity, kcat_Km” value is recorded as “no change, 5.2 ± 3.0 vs 5.3 ± 1.0”.

B3: β3GalT5–1 (soluble domain): kifunensine then Endo-H (mono-GlcNAc) (protein)
parent chain: T3 sequence (Q9Y2C3 1-310)
As for B3, in data set [2] (glycan lost), the “enzymatic_activity, fold_change” value is recorded as “increases”.

B4: β3GalT5–1 (soluble domain): kifunensine (high mannose glycoforms) (protein)
parent chain: T3 sequence (Q9Y2C3 1-310)
For the molecule B4, the “enzymatic_activity, fold_change” value in data set [2] (glycan changed form) is given as “increases”.

B5: soluble β3GalT5-1 (insect) (Homo sapiens) (protein)
chain: T2 sequence (Q9Y2C3 29-310)
notes: crystal: Phe31-Pro308 stated, Asp41-Pro308 visible
In the case of B5, in data set [4], the Km worked out at 660 ± 400 µM, the kcat turned out to be 0.0583 ± 0.00667 s⁻¹ and the kcat/Km was 88.3 ± 16.7 M⁻¹ s⁻¹.

B6: soluble β3GalT5-1 (HEK293) (Homo sapiens; Q69M) (protein)
chain: T2 sequence (Q9Y2C3 29-310) with Q41M
notes: soluble luminal domain N29-V310, no TM; expressed in HEK293 cells, complex-type N-glycans
For the molecule B6, in data set [5], the Km came out at 210 ± 50 µM, the kcat was found to be 0.0585 ± 0.005 s⁻¹ and the kcat/Km worked out at 282 ± 103 M⁻¹ s⁻¹. In data set [6], the Km came out at 420 ± 300 µM, the catalytic constant (kcat) turned out to be 0.0107 ± 0.00167 s⁻¹ and the kcat/Km is 25.3 ± 8.33 M⁻¹ s⁻¹.

B7: soluble β3GalT5-1 (HEK293) (Homo sapiens; S66A) (protein)
chain: T2 sequence (Q9Y2C3 29-310) with S38A
notes: as for B6
Consider B7, for which, in data set [5], the Km amounted to 350 ± 100 µM, the kcat turned out to be 0.276 ± 0.0417 s⁻¹ and the kcat/Km amounted to 781 ± 408 M⁻¹ s⁻¹. In data set [6], the Michaelis constant (Km) turned out to be 1200 ± 200 µM, the kcat was 0.0777 ± 0.005 s⁻¹ and the catalytic efficiency (kcat/Km) was 64.8 ± 31.7 M⁻¹ s⁻¹.

B8: soluble β3GalT5-1 (HEK293) (Homo sapiens; Q69A) (protein)
chain: T2 sequence (Q9Y2C3 29-310) with Q41A
notes: as for B6
For the molecule B8, in data set [5], the Km is 300 ± 50 µM, the turnover number (kcat) stood at 0.0497 ± 0.00333 s⁻¹ and the kcat/Km stood at 165 ± 63.3 M⁻¹ s⁻¹. Besides, in data set [6], the Km was determined as 1210 ± 300 µM, the kcat amounted to 0.012 ± 0.00117 s⁻¹ and the kcat/Km came out at 10 ± 3.33 M⁻¹ s⁻¹.

B9: soluble β3GalT5-1 (HEK293) (Homo sapiens; Q69M/S66A) (protein)
chain: T2 sequence (Q9Y2C3 29-310) with S38A, Q41M
notes: as for B6
Regarding B9, in data set [5], the Km amounted to 270 ± 60 µM, the kcat came out at 0.0773 ± 0.00667 s⁻¹ and the kcat/Km was found to be 284 ± 113 M⁻¹ s⁻¹. Besides, in data set [6], the Km worked out at 1650 ± 400 µM, the kcat turned out to be 0.0248 ± 0.00167 s⁻¹ and the kcat/Km worked out at 15 ± 6.67 M⁻¹ s⁻¹.

B10: soluble β3GalT5-1 (HEK293) (Homo sapiens; Q69A/S66A) (protein)
chain: T2 sequence (Q9Y2C3 29-310) with S38A, Q41A
notes: as for B6
With B10, in data set [5], the Km came out at 320 ± 90 µM, the kcat was found to be 0.0273 ± 0.00333 s⁻¹ and the specificity constant (kcat/Km) worked out at 156 ± 45 M⁻¹ s⁻¹. Also, in data set [6], the Michaelis constant (Km) amounted to 1110 ± 300 µM, the kcat was 0.00783 ± 0.000833 s⁻¹ and the kcat/Km stood at 7 ± 3.33 M⁻¹ s⁻¹.

B11: soluble β3GalT5-1 (HEK293) (Homo sapiens) (protein)
chain: T2 sequence (Q9Y2C3 29-310)
notes: as for B6
For the molecule B11, in data set [5], the Km stood at 140 ± 40 µM, the kcat came to 0.125 ± 0.0117 s⁻¹ and the kcat/Km turned out to be 870 ± 293 M⁻¹ s⁻¹. Besides, in data set [6], the Michaelis-Menten constant (Km) came out at 1400 ± 200 µM, the kcat was 0.0448 ± 0.00333 s⁻¹ and the kcat/Km was 32 ± 16.7 M⁻¹ s⁻¹.

The term Km denotes the substrate concentration at which the rate is half of its maximum. The kcat is the number of substrate molecules converted per active site and unit of time at saturation. As usually defined, the kcat/Km is the turnover number divided by the Michaelis constant.

(Values after article PMC11969553, “Expression of Human β3GalT5–1 in Insect Cells as Active Glycoforms for the Efficient Synthesis of Cancer-Associated Globo-Series Glycans” (Journal of the American Chemical Society, 2025).)
